The results in this text go back to article PMC4869175, “Evidence that phytochrome functions as a protein kinase in plant light signalling” (Nature Communications, 2016).

In test [1] the target is T1, AsphyA D422R, full length (Avena sativa, UniProt P06593 1-1129, D422R, phycocyanobilin chromophore assembled).
T1 construct: Avena sativa phytochrome A, full length, with D422R; source: phycocyanobilin added in vitro
T1 sequence (looked up): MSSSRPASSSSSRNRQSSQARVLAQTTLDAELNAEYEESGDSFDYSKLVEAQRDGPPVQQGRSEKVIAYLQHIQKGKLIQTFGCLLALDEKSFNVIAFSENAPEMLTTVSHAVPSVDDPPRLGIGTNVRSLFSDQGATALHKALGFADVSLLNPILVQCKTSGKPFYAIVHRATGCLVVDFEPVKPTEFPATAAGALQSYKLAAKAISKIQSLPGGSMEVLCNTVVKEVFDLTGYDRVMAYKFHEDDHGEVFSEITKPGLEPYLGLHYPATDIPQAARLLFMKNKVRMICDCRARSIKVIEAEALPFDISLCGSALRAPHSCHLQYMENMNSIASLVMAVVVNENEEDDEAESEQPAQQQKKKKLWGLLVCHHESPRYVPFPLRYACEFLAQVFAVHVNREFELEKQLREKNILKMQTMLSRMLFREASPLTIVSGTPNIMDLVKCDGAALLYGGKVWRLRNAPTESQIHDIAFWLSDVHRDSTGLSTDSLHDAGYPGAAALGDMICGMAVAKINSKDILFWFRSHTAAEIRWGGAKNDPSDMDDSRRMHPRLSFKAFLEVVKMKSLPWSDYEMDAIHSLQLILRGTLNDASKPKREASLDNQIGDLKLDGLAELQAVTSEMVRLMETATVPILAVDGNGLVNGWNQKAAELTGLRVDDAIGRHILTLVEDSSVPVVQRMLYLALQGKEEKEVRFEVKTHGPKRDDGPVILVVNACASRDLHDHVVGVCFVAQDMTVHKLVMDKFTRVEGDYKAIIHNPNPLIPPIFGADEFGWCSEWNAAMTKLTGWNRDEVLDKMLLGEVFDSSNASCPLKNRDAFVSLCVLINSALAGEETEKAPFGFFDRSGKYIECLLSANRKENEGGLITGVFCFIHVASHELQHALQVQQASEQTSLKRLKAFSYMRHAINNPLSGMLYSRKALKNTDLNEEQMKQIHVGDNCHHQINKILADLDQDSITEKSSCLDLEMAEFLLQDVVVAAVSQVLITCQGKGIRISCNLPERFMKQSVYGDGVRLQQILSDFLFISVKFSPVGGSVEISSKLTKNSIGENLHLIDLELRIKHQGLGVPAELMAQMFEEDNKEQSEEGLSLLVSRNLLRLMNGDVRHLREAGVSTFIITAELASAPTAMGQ
Description: pull-down; GST/strep-fused interacting protein (1.0 μg) held on glutathione resin, phytochrome (1.0 μg) in solution, Pr and Pfr forms both tested; 60 min at 4 °C in pull-down buffer (100 mM Tris-HCl pH 7.8, 1 mM EDTA, 150 mM NaCl, 100 μg/ml BSA); western blot with oat22 and anti-GST. The note with it: both partners purified. (In western blotting, separated proteins are transferred to a membrane and probed.)

Test [2] has as its target T2, AsphyA K411L, full length (Avena sativa, UniProt P06593 1-1129, K411L, phycocyanobilin chromophore assembled).
T2 construct: Avena sativa phytochrome A, full length, with K411L; source: phycocyanobilin added in vitro
T2 sequence (looked up): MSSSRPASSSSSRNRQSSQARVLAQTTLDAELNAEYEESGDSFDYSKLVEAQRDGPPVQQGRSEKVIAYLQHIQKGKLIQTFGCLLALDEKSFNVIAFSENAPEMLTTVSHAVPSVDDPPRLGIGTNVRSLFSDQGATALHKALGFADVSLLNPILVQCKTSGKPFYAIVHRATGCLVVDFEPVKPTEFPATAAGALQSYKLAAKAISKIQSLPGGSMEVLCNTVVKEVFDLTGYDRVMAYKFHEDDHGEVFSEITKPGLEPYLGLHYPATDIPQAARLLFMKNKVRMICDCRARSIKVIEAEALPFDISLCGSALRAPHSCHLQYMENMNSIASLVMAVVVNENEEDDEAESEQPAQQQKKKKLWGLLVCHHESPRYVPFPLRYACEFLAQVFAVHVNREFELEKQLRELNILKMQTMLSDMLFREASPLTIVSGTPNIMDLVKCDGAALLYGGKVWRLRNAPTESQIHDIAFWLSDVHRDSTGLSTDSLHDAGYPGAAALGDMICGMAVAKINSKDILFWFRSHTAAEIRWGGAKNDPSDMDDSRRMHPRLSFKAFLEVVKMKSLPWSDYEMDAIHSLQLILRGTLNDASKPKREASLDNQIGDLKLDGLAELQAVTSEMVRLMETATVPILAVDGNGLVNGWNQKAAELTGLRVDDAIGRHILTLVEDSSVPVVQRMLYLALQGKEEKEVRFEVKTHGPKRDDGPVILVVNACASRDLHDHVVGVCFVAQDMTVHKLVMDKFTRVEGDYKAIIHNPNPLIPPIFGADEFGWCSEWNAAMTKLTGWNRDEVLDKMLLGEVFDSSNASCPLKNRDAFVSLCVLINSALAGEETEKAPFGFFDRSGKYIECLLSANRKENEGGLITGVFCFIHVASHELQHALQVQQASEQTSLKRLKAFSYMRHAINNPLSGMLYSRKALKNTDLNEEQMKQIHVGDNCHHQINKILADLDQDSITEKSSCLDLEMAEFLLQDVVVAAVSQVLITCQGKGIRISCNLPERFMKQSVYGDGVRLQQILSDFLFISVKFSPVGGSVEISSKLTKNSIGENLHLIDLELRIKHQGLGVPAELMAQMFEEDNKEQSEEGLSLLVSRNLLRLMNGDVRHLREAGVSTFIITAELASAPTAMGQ
The description is as above. The conditions noted are these: both partners purified.

B1: GST/strep-fused FHL (natural protein, UniProt A8MR65 1-201, looked up)
chain: MDDADKSCSPSLDHSDINDPMIVAVESLDTSKKRKLHAEESDLLPLPKHFCSEHQASLVNSSCPSSVIDYAECSYAMENTKTSDEASSSASFTGPSLYMFKDSIYSTGSSSSGYAATSSIEQCFSKVDHKTQEDTQDFTHMEFIYHDSEFAVEDLQEVLNPVESYILSSARWSVSNQDSKEATTKPTIDQEFEQYFSTLMM
notes: FHL, which with FHY1 takes part in the nuclear localization of phyA; not shown: GST, N-terminal, kept
With B1, the binding result in test [1] and in test [2] was “binds” throughout.

B2: GST/strep-fused FHY1 (far-red elongated hypocotyl 1) (natural protein, UniProt Q8S4Q6 1-202, looked up)
chain: MPEVEVDNNNEKPSEINSFHHMIISSSKNVLKMEEVEVSKKRKFQTDQSDELSLLPLSKHTCFANVACSENTNGNSEIDTEYSMSSYVNSTTSMECNNDIEMKEESSGSCGEDKMISFESHLDYIYGTQNLEDFSEKVIENILYLDEQEEEEEDAKGCSSNAAKFVLSSGRWTVNQDDSTLHETKKPTIDQEFEQYFSTLML
notes: FHY1 (far-red elongated hypocotyl 1); not shown: GST, N-terminal, kept
Regarding B2, the binding result in test [1] and in test [2] was “binds” each time.

B3: GST/strep-fused PIF3 (natural protein, UniProt O80536 1-524, looked up)
chain: MPLFELFRLTKAKLESAQDRNPSPPVDEVVELVWENGQISTQSQSSRSRNIPPPQANSSRAREIGNGSKTTMVDEIPMSVPSLMTGLSQDDDFVPWLNHHPSLDGYCSDFLRDVSSPVTVNEQESDMAVNQTAFPLFQRRKDGNESAPAASSSQYNGFQSHSLYGSDRARDLPSQQTNPDRFTQTQEPLITSNKPSLVNFSHFLRPATFAKTTNNNLHDTKEKSPQSPPNVFQTRVLGAKDSEDKVLNESVASATPKDNQKACLISEDSCRKDQESEKAVVCSSVGSGNSLDGPSESPSLSLKRKHSNIQDIDCHSEDVEEESGDGRKEAGPSRTGLGSKRSRSAEVHNLSERRRRDRINEKMRALQELIPNCNKVDKASMLDEAIEYLKSLQLQVQIMSMASGYYLPPAVMFPPGMGHYPAAAAAMAMGMGMPYAMGLPDLSRGGSSVNHGPQFQVSGMQQQPVAMGIPRVSGGGIFAGSSTIGNGSTRDLSGSKDQTTTNNNSNLKPIKRKQGSSDQFCGSS
notes: Probably Arabidopsis PIF3, as PIF1 and PIF4 are called Arabidopsis; not shown: GST, N-terminal, kept
On to B3, for which the binding result in test [1] and in test [2] was “binds” each time.
